Reference: US20240190962A1 (IMMUNOWAKE, published 2024)
Residue numbers refer to the chain shown, from its start. Names may count otherwise. Blank lines part the entries; values can stand above or below the binder they belong to.

Legend:
human PD-1 [1] = biological target: T1, human PD-1 (human, UniProt Q15116 25-167, limits assumed); experiment: PD-L2-Fc format, calibrated on PD-L2(wt)-Fc
T1 construct: also called hPD-1

mouse PD-1 [2] = biological target: T2, mouse PD-1 (mouse, UniProt Q02242 25-167, limits assumed); experiment: PD-L2-Fc format, calibrated on PD-L2(wt)-Fc
T2 construct: also called mPD-1
T2 sequence (looked up): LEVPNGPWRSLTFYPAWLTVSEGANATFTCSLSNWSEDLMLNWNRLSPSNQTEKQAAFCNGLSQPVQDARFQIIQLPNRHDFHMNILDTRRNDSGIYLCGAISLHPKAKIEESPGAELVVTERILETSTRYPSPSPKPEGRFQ

CD4 on CD4+ T cells = biological target: T3, CD4 on CD4+ T cells (UniProt P01730 26-458, limits assumed); experiment: FACS
T3 construct: whole, on cells

[3] = biological target: human IL-12 receptor complex (IL-12Rβ1, IL-12Rβ2) (human, UniProt P42701 24-662; Q99665 24-862); experiment: cell-based or functional assay
human PD-1 [4] = biological target: T1, human PD-1; experiment: PD-L1-Fc format, calibrated on PD-L1(wt)-Fc
mouse PD-1 [5] = biological target: T2, mouse PD-1; experiment: PD-L1-Fc format, calibrated on PD-L1(wt)-Fc

human IL-12 receptor complex (IL-12Rβ1, IL-12Rβ2), sequence (Q99665 24-862, chain 2 of 2, other chains not shown): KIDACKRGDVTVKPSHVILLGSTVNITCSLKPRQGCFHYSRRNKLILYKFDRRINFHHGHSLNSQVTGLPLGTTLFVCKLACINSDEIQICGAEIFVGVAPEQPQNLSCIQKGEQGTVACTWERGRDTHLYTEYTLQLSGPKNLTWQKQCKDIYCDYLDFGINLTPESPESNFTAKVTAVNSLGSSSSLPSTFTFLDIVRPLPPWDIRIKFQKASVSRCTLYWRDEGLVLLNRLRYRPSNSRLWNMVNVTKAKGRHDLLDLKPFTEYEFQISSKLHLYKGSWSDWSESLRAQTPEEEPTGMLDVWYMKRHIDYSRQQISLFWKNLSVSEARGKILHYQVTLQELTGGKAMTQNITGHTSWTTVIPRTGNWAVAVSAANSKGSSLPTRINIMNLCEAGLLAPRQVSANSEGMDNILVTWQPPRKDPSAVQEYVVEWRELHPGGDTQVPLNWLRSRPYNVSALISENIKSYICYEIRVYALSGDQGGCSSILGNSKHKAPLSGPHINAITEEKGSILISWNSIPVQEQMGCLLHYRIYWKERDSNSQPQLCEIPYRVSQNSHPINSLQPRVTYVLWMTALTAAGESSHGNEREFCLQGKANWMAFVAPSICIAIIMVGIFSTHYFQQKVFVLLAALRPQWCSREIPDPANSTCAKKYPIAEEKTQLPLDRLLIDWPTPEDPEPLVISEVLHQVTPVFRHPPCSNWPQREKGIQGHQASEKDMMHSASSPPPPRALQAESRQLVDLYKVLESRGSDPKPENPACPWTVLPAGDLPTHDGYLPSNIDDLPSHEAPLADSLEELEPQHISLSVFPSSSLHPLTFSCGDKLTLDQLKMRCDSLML
T1 sequence (Q15116 25-167 limits assumed): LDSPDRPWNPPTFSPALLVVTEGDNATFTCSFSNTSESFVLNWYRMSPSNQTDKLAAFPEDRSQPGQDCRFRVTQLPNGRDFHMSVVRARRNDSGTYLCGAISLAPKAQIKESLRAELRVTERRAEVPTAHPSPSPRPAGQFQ

Kd (human PD-1 [1]): 350 nM
Kd (mouse PD-1 [2]): 230 nM
B1: PD-L2(mut2)-Fc (Fc fusion)
chain 1: LFTVTVPKELYIIEHGSNVTLECNFDTGSHVNLGAITAVLQKVENDTSPHRERATLLEEQLPLGKASFHIPQVQVRDEGQYQCIIIYGVAWDYKYLTLKVKASYRKINTHILKVPETDEVELTCQATGYPLAEVSWPNVSVPANTSHSRTPEGLYQVTSVLRLKPPPGRNFSCVFWNTHVRELTLASIDLQSQMEPRTHPTGGGGSGGGDKTHTCPPCPAPEDEGGPSVFLFPPKPKDTLMISRTPEVTCVVVDVSHEDPEVKFNWYVDGVEVHNAKTKPREEQYNSTYRVVSVLTVLHQDWLNGKEYKCKVSNKALPAPIEKTISKAKGQPREPQVYVYPPSREEMTKNQVSLTCLVKGFYPSDIAVEWESNGQPENNYKTTPPVLDEDGSFALVSKLTVDKSRWQQGNVFSCSVMHEALHNHYTQKSLSLSPGK
chain 2: B1 chain 1 with D223K, E224K, Y340L, T355L, N379R, K381M, T383W, E389S, A394F, V396Y
notes: also called PD-L2(S58V)

Kd (human PD-1 [1]): 255 nM
Kd (mouse PD-1 [2]): 220 nM
B2: PD-L2(mut4)-Fc (Fc fusion)
chain 1: B1 chain 1 with T37V, Q41L
chain 2: LFTVTVPKELYIIEHGSNVTLECNFDTGSHVNLGAIVAVLLKVENDTSPHRERATLLEEQLPLGKASFHIPQVQVRDEGQYQCIIIYGVAWDYKYLTLKVKASYRKINTHILKVPETDEVELTCQATGYPLAEVSWPNVSVPANTSHSRTPEGLYQVTSVLRLKPPPGRNFSCVFWNTHVRELTLASIDLQSQMEPRTHPTGGGGSGGGDKTHTCPPCPAPEKKGGPSVFLFPPKPKDTLMISRTPEVTCVVVDVSHEDPEVKFNWYVDGVEVHNAKTKPREEQYNSTYRVVSVLTVLHQDWLNGKEYKCKVSNKALPAPIEKTISKAKGQPREPQVYVLPPSREEMTKNQVSLLCLVKGFYPSDIAVEWESNGQPENRYMTWPPVLDSDGSFFLYSKLTVDKSRWQQGNVFSCSVMHEALHNHYTQKSLSLSPGK
notes: also called PD-L2(T56V/S58V/Q60L)

binding result (CD4 on CD4+ T cells): no binding
IL-12 biological activity (IFN-γ release), CD4+ T cells [3]: 21%
IL-12 biological activity (IFN-γ release), CD8+ T cells [3]: 56%
B3: Fab-IL-12(WT)-Fc-CD8 Ab (other)
light: DIQMTQTTSSLSASLGDRVTISCRASQDINNYLNWYQQKSDGTIKLLIYYTSRSYSGVPSRFSGSGSGTDYSLTISNRRQEDIATYFCQQGKTLPWTFGGGTKLEIKRTVAAPSVFIFPPSDEQLKSGTASVVCLLNNFYPREAKVQWKVDNALQSGNSQESVTEQDSKDSTYSLSSTLTLSKADYEKHKVYACEVTHQGLSSPVTKSFNRGEC
heavy 1: EVQLQQSGPELVKPGASVKMSCKASGYTFTDYYMKWVKQSHGKSLEWIGHINPNNDDTFYTQKFKGRATLTVDKSSSTAYMQLNSLTSEDSAVYYCVRDDYDGGWFAYWGQGTLVTVSSASTKGPSVFPLAPSSKSTSGGTAALGCLVKDYFPEPVTVSWNSGALTSGVHTFPAVLQSSGLYSLSSVVTVPSSSLGTQTYICNVNHKPSNTKVDKKVEPKSCDKTHTCPPCPAPEKKGGPSVFLFPPKPKDTLMISRTPEVTCVVVDVSHEDPEVKFNWYVDGVEVHNAKTKPREEQYNSTYRVVSVLTVLHQDWLNGKEYKCKVSNKALPAPIEKTISKAKGQPREPQVYVLPPSREEMTKNQVSLLCLVKGFYPSDIAVEWESNGQPENRYMTWPPVLDSDGSFFLYSKLTVDKSRWQQGNVFSCSVMHEALHNHYTQKSLSLSPGK
heavy 2: EVQLQQSGPELVKPGASVKMSCKASGYTFTDYYMKWVKQSHGKSLEWIGHINPNNDDTFYTQKFKGRATLTVDKSSSTAYMQLNSLTSEDSAVYYCVRDDYDGGWFAYWGQGTLVTVSSASTKGPSVFPLAPSSKSTSGGTAALGCLVKDYFPEPVTVSWNSGALTSGVHTFPAVLQSSGLYSLSSVVTVPSSSLGTQTYICNVNHKPSNTKVDKKVEPKSCDKPGSGIWELKKDVYVVELDWYPDAPGEMVVLTCDTPEEDGITWTLDQSSEVLGSGKTLTIQVKEFGDAGQYTCHKGGEVLSHSLLLLHKKEDGIWSTDILKDQKEPKNKTFLRCEAKNYSGRFTCWWLTTISTDLTFSVKSSRGSSDPQGVTCGAATLSAERVRGDNKEYEYSVECQEDSACPAAEESLPIEVMVDAVHKLKYENYTSSFFIRDIIKPDPPKNLQLKPLKNSRQVEVSWEYPDTWSTPHSYFSLTFCVQVQGKSKREKKDRVFTDKTSATVICRKNASISVRAQDRYYSSSWSEWASVPCSGGGGSGGGGSGGGGSGGGGSGRNLPVATPDPGMFPCLHHSQNLLRAVSNMLQKARQTLEFYPCTSEEIDHEDITKDKTSTVEACLPLELTKNESCLNSRETSFITNGSCLASRKTSFMMALCLSSIYEDLKMYQVEFKTMNAKLLMDPKRQIFLDQNMLAVIDELMQALNFNSETVPQKSSLEEPDFYKTKIKLCILLHAFRIRAVTIDRVMSYLNASDKTHTCPPCPAPEDEGGPSVFLFPPKPKDTLMISRTPEVTCVVVDVSHEDPEVKFNWYVDGVEVHNAKTKPREEQYNSTYRVVSVLTVLHQDWLNGKEYKCKVSNKALPAPIEKTISKAKGQPREPQVYVYPPSREEMTKNQVSLTCLVKGFYPSDIAVEWESNGQPENNYKTTPPVLDEDGSFALVSKLTVDKSRWQQGNVFSCSVMHEALHNHYTQKSLSLSPGK
notes: copies: 2 + 1 + 1

binding result (CD4 on CD4+ T cells): no binding
IL-12 biological activity (IFN-γ release), CD4+ T cells [3]: 2.1%
IL-12 biological activity (IFN-γ release), CD8+ T cells [3]: 24.2%
B4: Fab-IL-12(E59A)-Fc-CD8 Ab (other)
light: B3 light
heavy 1: B3 heavy 1
heavy 2: B3 heavy 2 with E287A
notes: copies: 2 + 1 + 1

binding result (CD4 on CD4+ T cells): no binding
IL-12 biological activity (IFN-γ release), CD4+ T cells [3]: 0%
IL-12 biological activity (IFN-γ release), CD8+ T cells [3]: 11%
B5: Fab-IL-12(E59A/F60A)-Fc-CD8 Ab (other)
light: B3 light
heavy 1: B3 heavy 1
heavy 2: B3 heavy 2 with E287A, F288A

binding result (CD4 on CD4+ T cells): no binding
IL-12 biological activity (IFN-γ release), CD4+ T cells [3]: 1.2%
IL-12 biological activity (IFN-γ release), CD8+ T cells [3]: 21.9%
B6: Fab-IL-12(F60A)-Fc-CD8 Ab (other)
light: B3 light
heavy 1: B3 heavy 1
heavy 2: B3 heavy 2 with F288A
notes: copies: 2 + 1 + 1

Kd (human PD-1 [4]): 98 nM
Kd (mouse PD-1 [5]): 110 nM
B7: PD-L1(mut7)-Fc (Fc fusion)
chain 1: FTVTVPKDLYVVEYGSNMTIECKFPVEKQLDLAALQVYWMMEDKNIIQFVHGEEDLKVQHSSYRQRARLLKDQLSLGNAALQITDVKLQDAGVYTCLIAYGGADYKRITVKVNAPYNKINQRILVVDPVTSEHELTCQAEGYPKAEVIWTSSDHQVLSGKTTTTNSKREEKLFNVTSTLRINTTTNEIFYCTFRRLDPEENHTAELVIPELPLAHPPNERGGGGSGGGDKTHTCPPCPAPEDEGGPSVFLFPPKPKDTLMISRTPEVTCVVVDVSHEDPEVKFNWYVDGVEVHNAKTKPREEQYNSTYRVVSVLTVLHQDWLNGKEYKCKVSNKALPAPIEKTISKAKGQPREPQVYVYPPSREEMTKNQVSLTCLVKGFYPSDIAVEWESNGQPENNYKTTPPVLDEDGSFALVSKLTVDKSRWQQGNVFSCSVMHEALHNHYTQKSLSLSPGK
chain 2: B7 chain 1 with D242K, E243K, Y359L, T374L, N398R, K400M, T402W, E408S, A413F, V415Y
notes: also called PD-L1(I54Q/E58M/R113T/M115L/S117A)
